Test results published in paper PMC3627646.
Values belong to the molecule of their own block, whether it stands above or below them.

What was measured:
[1] = molecular target: Ankyrin2, large isoform (Ank2-L) (Drosophila (endogenous in larval brain))
[2] = molecular target: Ank2-S–EGFP (short isoform of Ank2 containing all potential Nrg interacting domains) (Drosophila); test: co-IP; S2 cells co-transfected with act5C–Gal4, UAS–Ank2-S–EGFP and UAS–Nrg–3xHA; IP of Nrg180-HA proteins using Ank2-S–GFP; blots with anti-HA and anti-GFP; four independent IPs quantified (Odyssey2.1)
[3] = molecular target: Ankyrin2, large isoform (Ank2-L) (Drosophila (endogenous in larval brain)); remark: listed apart in the source

Molecule: Nrg180-HA Y-A (tyrosine of the FIGQY motif replaced with alanine) (from UniProt P20241-1 24-1302) (natural protein)
- FRAP of GFP-tagged Nrg180^Y-A in motoneurons in vivo (ok371–Gal4): mobility against wild type (fold against wild type) [1]: > 1.5
- decrease in binding capacities compared to wild-type [2]: 90%

Molecule: Nrg180-HA Y-F (tyrosine of the FIGQY motif replaced with phenylalanine) (from UniProt P20241-1 24-1302) (natural protein)
- FRAP of GFP-tagged Nrg180^Y-F in motoneurons in vivo (ok371–Gal4): mobility against wild type (fold against wild type) [1]: > 1.5
- decrease in binding capacities compared to wild-type [2]: 30%

B1: Nrg180-HA, wild type (UAS–Nrg–3xHA) (natural protein)
chain: KGNRPPRITKQPAPGELLFKVAQQNKESDNPFIIECEADGQPEPEYSWIKNGKKFDWQAYDNRMLRQPGRGTLVITIPKDEDRGHYQCFASNEFGTATSNSVYVRKAELNAFKDEAAKTLEAVEGEPFMLKCAAPDGFPSPTVNWMIQESIDGSIKSINNSRMTLDPEGNLWFSNVTREDASSDFYYACSATSVFRSEYKIGNKVLLDVKQMGVSASQNKHPPVRQYVSRRQSLALRGKRMELFCIYGGTPLPQTVWSKDGQRIQWSDRITQGHYGKSLVIRQTNFDDAGTYTCDVSNGVGNAQSFSIILNVNSVPYFTKEPEIATAAEDEEVVFECRAAGVPEPKISWIHNGKPIEQSTPNPRRTVTDNTIRIINLVKGDTGNYGCNATNSLGYVYKDVYLNVQAEPPTISEAPAAVSTVDGRNVTIKCRVNGSPKPLVKWLRASNWLTGGRYNVQANGDLEIQDVTFSDAGKYTCYAQNKFGEIQADGSLVVKEHTRITQEPQNYEVAAGQSATFRCNEAHDDTLEIEIDWWKDGQSIDFEAQPRFVKTNDNSLTIAKTMELDSGEYTCVARTRLDEATARANLIVQDVPNAPKLTGITCQADKAEIHWEQQGDNRSPILHYTIQFNTSFTPASWDAAYEKVPNTDSSFVVQMSPWANYTFRVIAFNKIGASPPSAHSDSCTTQPDVPFKNPDNVVGQGTEPNNLVISWTPMPEIEHNAPNFHYYVSWKRDIPAAAWENNNIFDWRQNNIVIADQPTFVKYLIKVVAINDRGESNVAAEEVVGYSGEDRPLDAPTNFTMRQITSSTSGYMAWTPVSEESVRGHFKGYKIQTWTENEGEEGLREIHVKGDTHNALVTQFKPDSKNYARILAYNGRFNGPPSAVIDFDTPEGVPSPVQGLDAYPLGSSAFMLHWKKPLYPNGKLTGYKIYYEEVKESYVGERREYDPHITDPRVTRMKMAGLKPNSKYRISITATTKMGEGSEHYIEKTTLKDAVNVAPATPSFSWEQLPSDNGLAKFRINWLPSTEGHPGTHFFTMHRIKGETQWIRENEEKNSDYQEVGGLDPETAYEFRVVSVDGHFNTESATQEIDTNTVEGPIMVANETVANAGWFIGMMLALAFIIILFIIICIIRRNRGGKYDVHDRELANGRRDYPEEGGFHEYSQPLDNKSAGRQSVSSANKPGVESDTDSMAEYGDGDTGQFTEDGSFIGQYVPGKLQPPVSPQPLNNSAAAHQAAPTAGGSGAAGSAAAAGASGGASSAGGAAASNGGAAAGAVATYV
- FRAP of GFP-tagged Nrg180 in motoneurons in vivo (ok371–Gal4): mobile fraction (% of total protein) [3]: 40

Further lines, results first:

- FRAP of GFP-tagged Nrg180^Y-D in motoneurons in vivo (ok371–Gal4): mobility against wild type (fold against wild type) [1]: > 1.5
- decrease in binding capacities compared to wild-type [2]: 70%
Molecule: Nrg180-HA Y-D (tyrosine of the FIGQY motif replaced with aspartate) (from UniProt P20241-1 24-1302) (natural protein)

- FRAP of GFP-tagged Nrg180^ΔFIGQY in motoneurons in vivo (ok371–Gal4): mobile fraction [3]: 80%
Molecule: Nrg180-HA ΔFIGQY (entire FIGQY motif deleted) (from UniProt P20241-1 24-1302) (natural protein)
